Measured values published in patent publication US20140011732A1 (Novo Nordisk, published 2014).
Starred links: 1 amine or outer side, 2 acyl side, 3 side chain; linkers in the order of their positions; H or OH if unused. Non-standard residues stand in square brackets, D forms with d. Groups on a side chain read outwards from the residue. Primed or numbered codes have the meaning given here. No end group written: not given here. *: point of attachment. C20 diacid = O=C(O)CCCCCCCCCCCCCCCCCCC(=O)*; C18 diacid = O=C(O)CCCCCCCCCCCCCCCCC(=O)*; d(βAsp) = O=C(O)[C@@H](CC(=O)[*:2])N[*:1]; γGlu = O=C(O)[C@H](CCC(=O)[*:2])N[*:1]; Desaminohistidyl = O=C(CCc1c[nH]cn1)*; Trx = NC[C@H]1CC[C@H](C(=O)O)CC1; Trx′ = not defined here; AEEA = NCCOCCOCC(=O)O; Aib = CC(C)(N)C(=O)O; Inp = O=C(O)C1CCNCC1; Bn = c1ccc(C*)cc1

B1: N-ε^20({2-[2-(2-{2-[2-((R)-3-carboxy-3-{[1-(17-carboxyheptadecanoyl)piperidine-4-carbonyl]amino}propionylamino)ethoxy]ethoxy}acetylamino)ethoxy]ethoxy}acetyl) … (peptide)
peptide: H[Aib]EGTFTSDVSSYK([AEEA-AEEA-d(βAsp)-Inp-C18 diacid])EGQAAREFIEWLT(Bn)KGRG-NH2
modifications: not fully specified; printed as N-ε^20({2-[2-(2-{2-[2-((R)-3-carboxy-3-{[1-(17-carboxyheptadecanoyl)piperidine-4-carbonyl]amino}propionylamino)ethoxy]ethoxy}acetylamino)ethoxy]ethoxy}acetyl) [Aib^8,Lys^20,Arg^28,Glu^30,Thr(O-benzyl)^33,]GLP-1-(7-37)amide
notes: Arg26 used; also called [Aib^8,Lys^20,Arg^26,Glu^30,Thr(O-benzyl)^33,]GLP-1-(7-37)amide derivative
B2: N-epsilon37-[2-(2-{2-[(S)-4-Carboxy-4-((S)-4-carboxy-4-{12-[4-(16-(1H-tetrazol-5-yl)hexadecanoylsulfamoyl)butyrylamino]dodecanoylamino}butyrylamino)butyrylamino … (peptide)
peptide: HAEGTFTSDVSSYLEEQAAREFIAWLVRGRK
modifications: Aib8; Lys37 N-epsilon carries the acyl side chain printed in the name; C-terminal amide
B3: [DesaminoHis7,Glu22,Arg26,Arg34]GLP-1-(7-37)Lys[2-(2-{2-[2-(2-{2-[4-Carboxy-4-({trans-4-[(19-carboxy-nonadecanoylamino)methyl]cyclohexanecarbonyl}amino)butyryla … (peptide)
peptide: [Desaminohistidyl]AEGTFTSDVSSYLEEQAAREFIAWLVRGRGK([AEEA-AEEA-γGlu-Trx-C20 diacid])-NH2
SMILES: CC[C@H](C)[C@H](NC(=O)[C@H](Cc1ccccc1)NC(=O)[C@H](CCC(=O)O)NC(=O)[C@H](CCCNC(=N)N)NC(=O)[C@H](C)NC(=O)[C@H](C)NC(=O)[C@H](CCC(N)=O)NC(=O)[C@H](CCC(=O)O)NC(=O)[C@H](CCC(=O)O)NC(=O)[C@H](CC(C)C)NC(=O)[C@H](Cc1ccc(O)cc1)NC(=O)[C@H](CO)NC(=O)[C@H](CO)NC(=O)[C@@H](NC(=O)[C@H](CC(=O)O)NC(=O)[C@H](CO)NC(=O)[C@@H](NC(=O)[C@H](Cc1ccccc1)NC(=O)[C@@H](NC(=O)CNC(=O)[C@H](CCC(=O)O)NC(=O)[C@H](C)NC(=O)CCc1c[nH]cn1)[C@@H](C)O)[C@@H](C)O)C(C)C)C(=O)N[C@@H](C)C(=O)N[C@@H](Cc1c[nH]c2ccccc12)C(=O)N[C@@H](CC(C)C)C(=O)N[C@H](C(=O)N[C@@H](CCCNC(=N)N)C(=O)NCC(=O)N[C@@H](CCCNC(=N)N)C(=O)NCC(=O)N[C@@H](CCCCNC(=O)COCCOCCNC(=O)COCCOCCNC(=O)CC[C@H](NC(=O)[C@H]1CC[C@H](CNC(=O)CCCCCCCCCCCCCCCCCCC(=O)O)CC1)C(=O)O)C(N)=O)C(C)C
B4: [ImPr^7,Arg^26,34,Glu^22]GLP-1-(7-37)Lys[2-(2-[2-((S)-4-((S)-4-(12-[4-(16-1H-tetrazol-5-ylhexadecanoylsulfamoyl)butyrylamino]dodecanoylamino)-4-carboxybutyrylam … (peptide)
peptide: HAEGTFTSDVSSYLEEQAAREFIAWLVRGRGK
modifications: ImPr7 (imidazopropionic acid = des-amino-histidine); the added C-terminal Lys carries the acyl side chain printed in the name; C-terminal amide
B5: [Aib8,Glu22,Arg26,Glu30,Pro37]GLP-1-((7-37)Lys … (peptide)
peptide: H[Aib]EGTFTSDVSSYLEEQAAREFIEWLVKGRPK
modifications: not fully specified (residue 32); printed as [Aib8,Glu22,Arg26,Glu30,Pro37]GLP-1-(7-37)Lys (2-(2-(3-(2-(2-(2-(2-(2-(2-(2-(2-(2-(2-(2-(2-[4-(S)-carboxy-4-(4-(S)-carboxy-4-(4-{4-[16-(Tetrazol-5-yl)hexadecanoylsulfamoyl]butanoylamino}butanoylamino) butyrylamino)butyrylamino]ethoxy)ethoxy)ethoxy)ethoxy)ethoxy)ethoxy)ethoxy)ethoxy)ethoxy)ethoxy)ethoxy)ethoxy) propionylamino)ethoxy)ethoxy) peptide
B6: [desaminoHis^7,Arg^26,Arg^34]GLP-1-(7-37)Lys[2-(2-[2-(2-[2-(2-((R)-3-[trans-4-((9-Carboxynonadecanoylamino]methyl)cyclohexylcarbonylamino]3-carboxypropionylamin … (peptide)
peptide: [Desaminohistidyl]AEGTFTSDVSSYLEGQAAREFIAWLVRGRGK-NH2
modifications: not fully specified (residue 32); printed as [desaminoHis^7,Arg^26,Arg^34]GLP-1-(7-37)Lys[2-(2-[2-(2-[2-(2-((R)-3-[trans-4-((9-Carboxynonadecanoylamino]methyl)cyclohexylcarbonylamino]3-carboxypropionylamino)ethoxy)ethoxy]acetylamino)ethoxy]ethoxy)acetyl]amide
B7: N-epsilon26-[2-(2-{2-[(S)-4-Carboxy-4-((S)-4-carboxy-4-{12-[4-(16-(1H-tetrazol-5-yl)hexadecanoylsulfamoyl)butyrylamino]dodecanoylamino}butyrylamino)butyrylamino … (peptide)
peptide: HAEGTFTSDVSSYLEGQAAKEFIAWLKR
modifications: Aib8; N-epsilon26 (so in the source) carries the acyl side chain printed in the name
notes: GLP-1-(7-34) = residues 1-28 of the entry
B8: N-alpha8-[2-(4-imidazolyl)acetyl] … (peptide)
peptide: {2‑(4-imidazolyl)acetyl}-AEGTFTSDVSSYLEEQAAREFIAWLVRGRK([AEEA-AEEA-γGlu-Trx′-C20 diacid])
modifications: reading uncertain; also: printed as N-alpha8-[2-(4-imidazolyl)acetyl] N-epsilon37-[2-(2-{2-[2-(2-{2-[(S)-4-Carboxy-4-({trans-4-[(19-carboxynonadecanoylamino)methyl]cyclohexanecarbonyl}amino)butyrylamino]ethoxy}ethoxy)acetylamino]ethoxy}ethoxy)acetyl][Glu22,Arg26,Arg34,Lys37]GLP-1-(8-37)
notes: GLP-1-(8-37) = residues 2-31 of the entry
B9: N-epsilon37{2-[2-(2-{2-[2-((S)-3-carboxy-3-{[1-(19-carboxynonadecanoyl)piperidine-4-carbonyl]amino}propionylamino)ethoxy]ethoxy}acetylamino)ethoxy]ethoxy}acetyl … (peptide)
peptide: H[Aib]EGTFTSDVSSYLEEQAAREFIAWLVRGRK-NH2
modifications: not fully specified (residue 31); printed as N-epsilon37{2-[2-(2-{2-[2-((S)-3-carboxy-3-{[1-(19-carboxynonadecanoyl)piperidine-4-carbonyl]amino}propionylamino)ethoxy]ethoxy}acetylamino)ethoxy]ethoxy}acetyl [Aib8,Glu22,Arg26,Arg34,Lys37]GLP-1-(7-37)amide
B10: [DesaminoHis7,Glu22,Arg26,Arg34]GLP-1-(7-37)Lys[2-(2-[2-(2-[2-(2-((S)-4-[1-[19-Carboxynonadecanoyl]piperidine-4-carbonylamino]-4-carboxybutyrylamino)ethoxy)etho … (peptide)
peptide: [Desaminohistidyl]AEGTFTSDVSSYLEEQAAREFIAWLVRGRGK([AEEA-AEEA-γGlu-Inp-C20 diacid])-NH2
SMILES: CC[C@H](C)[C@H](NC(=O)[C@H](Cc1ccccc1)NC(=O)[C@H](CCC(=O)O)NC(=O)[C@H](CCCNC(=N)N)NC(=O)[C@H](C)NC(=O)[C@H](C)NC(=O)[C@H](CCC(N)=O)NC(=O)[C@H](CCC(=O)O)NC(=O)[C@H](CCC(=O)O)NC(=O)[C@H](CC(C)C)NC(=O)[C@H](Cc1ccc(O)cc1)NC(=O)[C@H](CO)NC(=O)[C@H](CO)NC(=O)[C@@H](NC(=O)[C@H](CC(=O)O)NC(=O)[C@H](CO)NC(=O)[C@@H](NC(=O)[C@H](Cc1ccccc1)NC(=O)[C@@H](NC(=O)CNC(=O)[C@H](CCC(=O)O)NC(=O)[C@H](C)NC(=O)CCc1c[nH]cn1)[C@@H](C)O)[C@@H](C)O)C(C)C)C(=O)N[C@@H](C)C(=O)N[C@@H](Cc1c[nH]c2ccccc12)C(=O)N[C@@H](CC(C)C)C(=O)N[C@H](C(=O)N[C@@H](CCCNC(=N)N)C(=O)NCC(=O)N[C@@H](CCCNC(=N)N)C(=O)NCC(=O)N[C@@H](CCCCNC(=O)COCCOCCNC(=O)COCCOCCNC(=O)CC[C@H](NC(=O)C1CCN(C(=O)CCCCCCCCCCCCCCCCCCC(=O)O)CC1)C(=O)O)C(N)=O)C(C)C

Each binder was assayed against T1, human serum albumin (HSA) (human, UniProt P02768 25-609, biotinylated) (assay: competition SPA on biotinylated HSA, 125I acylated GLP-1 tracer;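 also: streptavidin SPA beads carrying biotinylated HSA, competition incubated 20 h at room temperature, plates then read on a TopCount counter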).
T1 construct: also called biotinylated HSA
Description: Streptavidin-SPA beads (GE Healthcare RPNQ0009) were incubated with biotinylated HSA for 5 hours. The beads were washed with buffer to remove unbound HSA. […] After 20 hours of gentle rocking at room temperature the plates were centrifuged and counted on a TopCounter.
B1 was tested, and the EC50 was 300 to 800 nM.
Binder B2 has an EC50 of 800 to 2000 nM.
Binder H[Aib]EGTFTSDVSSYLEEQAAREFIAWLVRGRK([AEEA-AEEA-γGlu-Trx-C20 diacid])-NH2 has an EC50 of 800 to 2000 nM.
With B3 the EC50 was 800 to 2000 nM.
In the case of B4, the EC50 is reported as 1 to 100 nM.
HAEGTFTSDVSSYLEEQAAREFIEWLVKGRPK (Aib8; the added C-terminal Lys carries the acyl side chain printed in the name) [[Aib8,Glu22,Arg26,Glu30,Pro37]GLP-1-(7-37)Lys …] showed an EC50 of 150 to 300 nM.
For B5, the EC50 was 300 to 800 nM.
[Desaminohistidyl]AEGTFTSDVSSYLEGQAAREFIAWLVRGRGK([AEEA-AEEA-γGlu-Inp-C20 diacid]) [[DesaminoHis7,Arg26,34]-GLP-1 …] was tested, and the EC50 was > 2000 nM.
B6 was tested, and the EC50 was > 2000 nM.
In the case of B7, the EC50 is reported as 1 to 100 nM.
In the case of HAEGTFTSDVSSYLEEQAAREFIAWLVRGRK (Aib8; Lys37 N-epsilon carries the acyl side chain printed in the name), the EC50 is reported as 1 to 100 nM.
For B8, the EC50 was 150 to 300 nM.
Work on B9 yielded an EC50 of 300 to 800 nM.
With B10 the EC50 was 300 to 800 nM.
